According to paper PMC6265447, “The bacterial Mre11–Rad50 homolog SbcCD cleaves opposing strands of DNA by two chemically distinct nuclease reactions”:

Biological target: SbcC;SbcD H84Q (Escherichia coli;Escherichia coli, UniProt P13458;P0AG76 1-1048;1-400, |H84Q)
Test: fluorescence anisotropy; 1 mM ATP, 5 mM Mg2+, 1 mM Mn2+; 25 mM Tris pH 7.5, 50 mM KCl, 5 mM MgCl2, 1 mM MnCl2, 1 mM DTT, 1 mM ATP where stated; 5 nM DNA, 2-1000 nM SbcCD, 20 min at 25 C
Settings: protein: recombinant;recombinant; tags: ;C-terminal His6; chain copies: 2;2; label: 5' 6-FAM; blunt

Binder	Kd [nM]
30 bp DNA (dsDNA) DNA 1: CGCTTTATCAGAAGCCAGACATTAACGCTT DNA 2: AAGCGTTAATGTCTGGCTTCTGATAAAGCG	43 ± 7
25 bp DNA (dsDNA) DNA 1: CGCTTTATCAGAAGCCAGACATTAA DNA 2: TTAATGTCTGGCTTCTGATAAAGCG	146 ± 46
